In PMC4755545:

Molecular target: TAP-tagged Lid1 (Apc4), subunit of the APC/C (S. pombe) (UniProt O42839)
Experiment: co-IP; Apc4-TAP pulled down with IgG Dynabeads from extracts of cdc25-22 cells released from G2 into mitosis at 25°C, carbendazim added after 20 min, time points every 15 min; blots for Mad3p (anti-GFP) and Mad2p; lysis buffer 50 mM HEPES pH 7.5, 75 mM KCl, 0.1% TritonX-100; strains wild type, mad3-KEN1, mad3-KEN2, mad3-C9A, mad2-S92A, mad3-C9A mad2-S92A

Chain of UniProt O42839 (O42839 whole entry): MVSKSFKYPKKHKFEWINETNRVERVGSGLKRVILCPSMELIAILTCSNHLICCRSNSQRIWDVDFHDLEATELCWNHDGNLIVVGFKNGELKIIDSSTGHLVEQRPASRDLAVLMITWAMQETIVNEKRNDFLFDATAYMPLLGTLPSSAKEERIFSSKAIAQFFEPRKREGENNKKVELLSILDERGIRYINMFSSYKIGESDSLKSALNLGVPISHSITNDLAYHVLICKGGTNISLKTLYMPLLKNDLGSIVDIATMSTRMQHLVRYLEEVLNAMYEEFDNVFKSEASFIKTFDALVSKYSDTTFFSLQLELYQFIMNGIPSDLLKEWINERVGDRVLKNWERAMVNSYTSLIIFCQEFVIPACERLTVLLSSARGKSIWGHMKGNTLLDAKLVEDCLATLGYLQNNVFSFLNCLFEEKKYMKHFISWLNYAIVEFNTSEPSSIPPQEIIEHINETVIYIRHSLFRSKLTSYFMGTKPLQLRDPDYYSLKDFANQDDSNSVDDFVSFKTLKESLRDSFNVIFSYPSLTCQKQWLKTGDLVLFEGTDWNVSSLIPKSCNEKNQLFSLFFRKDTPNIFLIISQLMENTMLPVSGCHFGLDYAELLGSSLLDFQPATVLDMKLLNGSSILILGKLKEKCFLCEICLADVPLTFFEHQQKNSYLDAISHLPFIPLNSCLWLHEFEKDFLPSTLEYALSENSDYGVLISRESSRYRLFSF

level bound to the APC/C as percent of wild type (mad3-C9A mad2-S92A strain, 45 and 60 min) | MCC-APC/C level as percent of wild type, 60 min | Substance
20% | – | Mad3-C9A tagged with GFP (from UniProt O59767 1-310) (natural protein)
– | 65% | Mad3-KEN2 mutant tagged with GFP (from UniProt O59767 1-310) (natural protein)
